The target in data set [1] is Pf4r, repressor C protein of the Pf4 filamentous phage (wild type) (Pf4 filamentous phage (prophage of Pseudomonas aeruginosa PAO1)). The data set can be described thus: SEC-MALS; Superdex 75 5/150 equilibrated with PBS; samples prepared in 20 mM HEPES pH 7.5, 300 mM NaCl, 10% glycerol, 2 mM TCEP; 50 uL loaded at 20 mg/mL; monomer to dimer. On the technique in general: In gel filtration, larger molecules generally elute earlier.

Data set [2] has as its target Pf6r, repressor of the Pf6 filamentous phage (wild type) (Pf6 filamentous phage (prophage of Pseudomonas aeruginosa PAO1)). Described as above.
The test system of data set [3] is T1, Pf4r (repressor C) (Pseudomonas aeruginosa PAO1 (Pf4 filamentous prophage)), ORF:4ff4b857.
T1 sequence: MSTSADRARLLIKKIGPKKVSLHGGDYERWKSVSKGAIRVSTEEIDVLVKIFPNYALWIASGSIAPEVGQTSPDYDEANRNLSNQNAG
Nature of the data set: EMSA. Background: In EMSA bound probe runs differently from free probe, usually more slowly.

Read-outs that look alike come from different tables or passages of the source.

As to “Pf4r, repressor C protein of the Pf4 filamentous phage (wild type) (natural protein)”, the stoichiometry N (commonly the number of molecules, sites or subunits per partner or assembly) in data set [1] came to 2.
As to “Pf6r, repressor of the Pf6 filamentous phage (wild type) (natural protein)”, the stoichiometry N in data set [2] amounted to 2.
In the case of “TTTTGGGGCCGATTTTCTTGATTAATAGTCTTGCTCTATCGGCTGACGTGCTCATATAGAAATTTATTCCGGGGAAATAGTTGCCCTGACGTGGCTTTGGGGAAATAATTTCTCCAGGGTAATTATTTCTCTA (double strand) [Ppf4r]”, the binding entry in data set [3] (EMSA: 10 mM Tris, 1 mM DTT, 2.5% glycerol, 5 ug/uL BSA, 0.05% NP-40, 80 mM KCl, 5 mM MgCl2, 2 mM EDTA, 10 fmol probe, 30 min, 30 C (protein diluted in TE pH …)) is listed as “binds”.
On to “TTTTGGGGCCGATTTTCTTGATTAATAGTCTTGCTCTATCGGCTGACGTGCTCATATAGAAATTTATTCCGGGGAAATAGTTGCCCTGACGTGGCTTTGGGGAGATAATTTCTCCAGGGTAATTATTTCTCTA (double strand) [Ppf4r-A>G]”, for which, in data set [3], the binding entry was “no binding”.
Consider “TTTTGGGGCCGATTTTCTTGATTAATAGTCTTGCTCTATCGGCTGACGTGCTCATATAGAAATTTATTCCGGTGAAATAGTTGCCCTGACGTGGCTTTGGGGAAATAATTTCTCCAGGGTAATTATTTCTCTA (double strand) [Ppf4r-G>T]”, for which the binding entry in data set [3] is listed as “binds more weakly”.
Same read-out and setting: the same measure for “TTTTGGGGCCGATTTTCTTGATTAATAGTCTTGCTCTATCGGCTGACGTGCTCATATAGAAATTTATTCCGGTGAAATAGTTGCCCTGACGTGGCTTTGGGGAGATAATTTCTCCAGGGTAATTATTTCTCTA (double strand) [Ppf4r-doubleSNP]”: “no binding”.

The record behind these values is article PMC8402870.
